This is an account of results in patent US20130243743A1 (ACCELERON PHARMA, published 2013).

Assay [1] addresses T1, Activin A (UniProt P08476 311-426).
T1 sequence (looked up): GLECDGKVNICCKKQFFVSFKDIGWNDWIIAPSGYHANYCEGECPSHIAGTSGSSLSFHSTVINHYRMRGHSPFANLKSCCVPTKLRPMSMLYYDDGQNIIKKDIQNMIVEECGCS
The assay can be described thus: cell-based or functional assay.

The target of assay [2] is T2, Growth and Differentiation Factor-11 (GDF11) (UniProt O95390 299-407).
T2 sequence (looked up): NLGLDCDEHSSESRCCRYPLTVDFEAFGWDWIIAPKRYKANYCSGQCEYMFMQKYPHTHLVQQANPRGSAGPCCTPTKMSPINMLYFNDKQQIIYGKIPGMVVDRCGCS
Kind of assay: cell-based or functional assay.

Assay [3] concerns the target T1, Activin A. The assay can be described thus: Biacore SPR; ligand coupled to the device, receptor flowed (table reproduced from WO2006/012627); +15tail variant; ligand coupled to the device, receptor flowed over it (data from WO2006/012627). (In general: SPR reads the build-up and loss of mass on a sensor chip optically.)
Assay [4] concerns the target T2, Growth and Differentiation Factor-11 …. Described as above.

Where two headings read alike, the source gives them in different places.

B1: ActRIIB(21-131)-hFc (Fc fusion, not shown: a dimerising Fc or GST)
chain: RGEAETRECIYYNANWELERTNQSGLERCEGEQDKRLHCYASWRNSSGTIELVKKGCWLDDFNCYDRQECVATEENPQVYFCCCEGNFCNERFTHLPEAGGPEVTYEPPPT
Regarding B1, the IC50, inhibition of ligand signalling, A-204 reporter gene assay (conditioned media) with Activin A [1] was 0.325 µg/mL; in assay [2], 0.121 µg/mL.

B2: ActRIIB(22-131)-hFc (Fc fusion, not shown: a dimerising Fc or GST)
chain: GEAETRECIYYNANWELERTNQSGLERCEGEQDKRLHCYASWRNSSGTIELVKKGCWLDDFNCYDRQECVATEENPQVYFCCCEGNFCNERFTHLPEAGGPEVTYEPPPT
On to B2, for which the IC50, inhibition of ligand signalling, A-204 reporter gene assay (conditioned media) with Activin A [1] is 0.1 µg/mL; in assay [2] it was 0.071 µg/mL.

B3: ActRIIB(20-132)-hFc (Fc fusion, not shown: a dimerising Fc or GST)
chain: GRGEAETRECIYYNANWELERTNQSGLERCEGEQDKRLHCYASWRNSSGTIELVKKGCWLDDFNCYDRQECVATEENPQVYFCCCEGNFCNERFTHLPEAGGPEVTYEPPPTA
For B3, the results for the IC50, inhibition of ligand signalling, A-204 reporter gene assay (conditioned media) (in the assay with Activin A [1]; in assay [2]) were 0.032 µg/mL and 0.087 µg/mL, respectively.

B4: ActRIIB(23-131)-hFc (Fc fusion, not shown: a dimerising Fc or GST)
chain: EAETRECIYYNANWELERTNQSGLERCEGEQDKRLHCYASWRNSSGTIELVKKGCWLDDFNCYDRQECVATEENPQVYFCCCEGNFCNERFTHLPEAGGPEVTYEPPPT
Take B4: the IC50, inhibition of ligand signalling, A-204 reporter gene assay (conditioned media) in the assay with Activin A [1] was determined as 0.043 µg/mL; in assay [2], 0.06 µg/mL.

B5: ActRIIB(20-131)-hFc (Fc fusion, not shown: a dimerising Fc or GST)
chain: GRGEAETRECIYYNANWELERTNQSGLERCEGEQDKRLHCYASWRNSSGTIELVKKGCWLDDFNCYDRQECVATEENPQVYFCCCEGNFCNERFTHLPEAGGPEVTYEPPPT
Consider B5, for which the IC50, inhibition of ligand signalling, A-204 reporter gene assay (conditioned media) in the assay with Activin A [1] is 0.201 µg/mL; in the assay with Activin A [1] (record 2) it was 0.044 µg/mL; in assay [2], 0.183 µg/mL; in assay [2] (record 2), 0.12 µg/mL.

B6: ActRIIB(24-131)-hFc (Fc fusion, not shown: a dimerising Fc or GST)
chain: AETRECIYYNANWELERTNQSGLERCEGEQDKRLHCYASWRNSSGTIELVKKGCWLDDFNCYDRQECVATEENPQVYFCCCEGNFCNERFTHLPEAGGPEVTYEPPPT
For the molecule B6, the IC50, inhibition of ligand signalling, A-204 reporter gene assay (conditioned media) with Activin A [1] came out at 0.105 µg/mL; in assay [2] it was 0.069 µg/mL.

B7: ActRIIB(20-134)-hFc (Fc fusion, not shown: a dimerising Fc or GST)
chain: GRGEAETRECIYYNANWELERTNQSGLERCEGEQDKRLHCYASWRNSSGTIELVKKGCWLDDFNCYDRQECVATEENPQVYFCCCEGNFCNERFTHLPEAGGPEVTYEPPPTAPT
With B7, the “IC50, inhibition of ligand signalling, A-204 reporter gene assay (conditioned media)” value with Activin A [1] is 0.022 µg/mL; in assay [2], 0.045 µg/mL.

B8: Soluble ActRIIB-Fc +15tail (Fc fusion)
chain: GRGEAETRECIYYNANWELERTNQSGLERCEGEQDKRLHCYASWANSSGTIELVKKGCWLDDFNCYDRQECVATEENPQVYFCCCEGNFCNERFTHLPEAGGPEVTYEPPPTAPT
notes: not shown: linker and Fc
With B8, the results for the Kd (in the assay with Activin A [3]; in assay [4]) were about 26 nM and 19 nM, respectively.

B9: ActRIIB(20-128)-hFc (Fc fusion, not shown: a dimerising Fc or GST)
chain: GRGEAETRECIYYNANWELERTNQSGLERCEGEQDKRLHCYASWRNSSGTIELVKKGCWLDDFNCYDRQECVATEENPQVYFCCCEGNFCNERFTHLPEAGGPEVTYEP
B9: the IC50, inhibition of ligand signalling, A-204 reporter gene assay (conditioned media) is 0.158 µg/mL with Activin A [1] and 0.13 µg/mL in assay [2].
